Laboratory results published in US20220074941A1, “HSP90 COMBINATION THERAPY” (Sloan-Kettering Institute for Cancer Research, priority 2011, published 2022).

Legend:
[1] = system: Hsp90 complexes in K562 cell extract; assay: Nano-LC-MS/MS of PU-beads pull-downs; assay type: binding; conditions: protein identified in PU-beads pull-down of K562 cell extract, QSTAR-Elite QTof MS
Method in brief: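 Lysates pre-cleared overnight at 4 °C with control beads, then pulled down with PU-beads or control beads; eluted proteins (2% SDS boil) gel-separated and analysed by nano LC-MS/MS on a QTof. Mascot identification (p<0.05), spectral counts and sequence coverage evaluated in Scaffold.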

[2] = system: Hsp90 complexes in Mia-PaCa-2 cell extract; assay: Nano-LC-MS/MS of PU-beads pull-downs; assay type: binding, human; conditions: protein identified in PU-beads pull-down of Mia-PaCa-2 cell extract; QSTAR-Elite QTof MS
Method in brief: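 Lysates pre-cleared overnight at 4 °C with control beads underwent PU-bead pull-down; bound proteins were SDS-eluted, gel-separated, digested and analyzed by nano-LC-MS/MS on a QTof. Identifications used significance p<0.05, 0.4 Da tolerances and one missed cleavage; unique peptide (spectral) counts and sequence coverage were reported.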

B1: O60613 (protein, UniProt O60613 1-165, looked up)
chain: MVAMAAGPSGCLVPAFGLRLLLATVLQAVSAFGAEFSSEACRELGFSSNLLCSSCDLLGQFNLLQLDPDCRGCCQEEAQFETKKLYAGAILEVCGUKLGRFPQVQAFVRSDKPKLFRGLQIKYVRGSDPVLKLLDDNGNIAEELSILKWNTDSVEEFLSEKLERI
modifications: full-length
In the case of B1, the “Number of Assigned Spectra, K562 Prep 1” value ([1]; Prep 1) is reported as 0, the “Number of Assigned Spectra, K562 Prep 2” value ([1]; Prep 2) is reported as 0 and the “Number of Assigned Spectra, Mia-Paca 2” value [2] is reported as 2.
